Primed or numbered codes have the meaning given here. Where no end group is shown, it is not given here. FITC′ = fluorescein isothiocyanate; Ahx = NCCCCCC(=O)O

One may read the Kd as the constant that tells how readily two partners part at equilibrium.

First the molecules themselves.
B1: JCPyV LTA NLS peptide (peptide)
peptide: {FITC′-Ahx}-MFASDDENTGSQHSTPPKKKKKV
notes: also called JCPyV LTA cNLS; JCPyV LTA monopartite cNLS
B2: MWPyV LTA NLSbip peptide (peptide)
peptide: {FITC′-Ahx}-PKKRPRESSSNSTCTPPKRPRNF
notes: also called MWPyV LTA cNLS; MWPyV LTA bipartite cNLS
B3: STLPyV LTA NLSbip peptide (peptide)
peptide: {FITC′-Ahx}-KRKFPDSSTQNSTPPKKNKPA
notes: also called STLPyV LTA cNLS; STLPyV LTA bipartite cNLS
B4: MCPyV LTA NLSbip peptide (peptide)
peptide: {FITC′-Ahx}-PFSRKRKFGGSRSSASSASSASFTSTPPKPKKNRE
notes: also called MCPyV LTA cNLS; bipartite MCPyV LTA NLS; source: synthetic peptide (solid phase, HPLC purified)
B5: MCPyV LTA NLSm peptide (peptide)
peptide: {FITC′}-PFSRKRKFGGS
B6: WUPyV LTA NLSbip peptide (peptide)
peptide: {FITC′-Ahx}-KRTREDDEEPQCSQATPPKKKKD
notes: also called WUPyV LTA cNLS; WUPyV LTA bipartite cNLS
B7: KIPyV LTA NLSbip peptide (peptide)
peptide: {FITC′-Ahx}-KRSAPEEEPSCSQATPPKKKHA
notes: also called KIPyV LTA cNLS; KIPyV LTA bipartite cNLS

One test addresses T1, mouse importin α2 lacking the IBB domain (IMPα2ΔIBB) (mouse, UniProt P52293 70-529). The experiment in a line: crystal structure. The conditions noted are these: both partners purified.
Take B1: the binding result is “binds”.

The target of another test is T2, human importin α1 lacking the IBB domain (IMPα1ΔIBB) (human, UniProt P52292 70-529). The experiment in a line: fluorescence polarisation; two-fold dilutions of IMPαΔIBB titrated against FITC-cNLS peptide in tris-buffered saline, 200 μL; one site specific binding fit; triplicate. The conditions noted are these: both partners purified. On the technique in general: In fluorescence polarisation assays a small probe gives low polarisation when free and higher when bound to something large.
In the case of B1, the Kd lay in the range of 76 to 270 nM.

The target of the next test is T1, mouse importin α2 lacking the IBB …. The experiment in a line: native gel or EMSA; 1.5% agarose gel in TB buffer (0.45 mM tris, 0.45 mM boric acid, pH 8.5), 70 V for 2 h; IMPαΔIBB ± FITC-cNLS peptide; UV image for the peptide, Coomassie for the protein. The conditions noted are these: both partners purified. (In general: Mobility shift assays separate free from complexed probe on a gel.)
As to B2, the binding result is recorded as “binds”.
On the same count and under the same terms, next, B3: “binds”; B4: “binds”; B5: “binds”.
On the same count and under the same terms, the entry for B6 is “binds”; for B7 it is “binds”.

The target in the next test is T2, human importin α1 lacking the IBB …. The description is as above. The conditions noted are these: both partners purified.
With B2, the binding result was “binds”.
Same read-out and setting: next, B3: “binds”; B4: “binds”; B6: “binds”.
On the same count and under the same terms, next, B7: “binds”.

In a further test the target is T3, human importin α3 lacking the IBB domain (IMPα3ΔIBB) (human, UniProt O00629 64-521).
T3 sequence (looked up): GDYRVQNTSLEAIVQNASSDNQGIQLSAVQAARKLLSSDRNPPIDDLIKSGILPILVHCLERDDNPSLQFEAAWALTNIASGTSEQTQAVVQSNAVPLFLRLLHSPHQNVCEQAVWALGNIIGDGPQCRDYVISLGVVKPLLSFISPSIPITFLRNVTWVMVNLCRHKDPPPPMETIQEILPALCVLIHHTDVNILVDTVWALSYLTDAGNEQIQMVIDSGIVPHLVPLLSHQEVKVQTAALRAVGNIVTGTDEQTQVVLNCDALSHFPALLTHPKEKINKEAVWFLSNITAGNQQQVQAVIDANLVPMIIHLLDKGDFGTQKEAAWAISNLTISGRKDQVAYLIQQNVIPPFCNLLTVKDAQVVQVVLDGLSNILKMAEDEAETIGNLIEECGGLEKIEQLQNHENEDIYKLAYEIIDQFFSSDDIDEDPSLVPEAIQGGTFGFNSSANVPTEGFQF
Described as above. The conditions noted are these: both partners purified.
Take B2: the binding result is “binds”.
On the same count and under the same terms, the entry for B3 is “binds”; for B4 it is “binds”.
B1: the binding result is listed as “binds”.
With B6, the binding result is listed as “binds”.
On to B7, for which the binding result was “binds”.

The target in another test is human importin α5 lacking the IBB domain (IMPα5ΔIBB) (human, UniProt P52294 73-538). The test is described as above. The conditions noted are these: both partners purified.
Chain of human importin α5 lacking the IBB domain (IMPα5ΔIBB) (P52294 73-538, stated change not applied): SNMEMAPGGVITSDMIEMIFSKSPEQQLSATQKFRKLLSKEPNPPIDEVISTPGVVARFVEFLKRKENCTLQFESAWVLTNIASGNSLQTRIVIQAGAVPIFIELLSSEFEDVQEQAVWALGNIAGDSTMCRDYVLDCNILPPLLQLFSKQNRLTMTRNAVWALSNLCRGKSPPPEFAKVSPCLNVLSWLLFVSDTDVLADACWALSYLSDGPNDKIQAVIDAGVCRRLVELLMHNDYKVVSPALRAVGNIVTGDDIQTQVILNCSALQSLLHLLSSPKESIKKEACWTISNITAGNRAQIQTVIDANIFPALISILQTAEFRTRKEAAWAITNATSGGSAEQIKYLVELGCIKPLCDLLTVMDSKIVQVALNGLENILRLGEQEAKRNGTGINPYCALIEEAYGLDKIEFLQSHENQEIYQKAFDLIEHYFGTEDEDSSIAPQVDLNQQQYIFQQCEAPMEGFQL
In the case of B2, the binding result is given as “binds”.
On the same count and under the same terms, next, B3: “binds”; B4: “binds”.
For B1, the binding result is on record as “binds”.
On the same count and under the same terms, the entry for B6 is “binds”; for B7 it is “binds”.

The target of a further test is human importin α7 lacking the IBB domain (IMPα7ΔIBB) (human, UniProt O60684 73-536). Described as above. The conditions noted are these: both partners purified.
Chain of human importin α7 lacking the IBB domain (IMPα7ΔIBB) (O60684 73-536, stated change not applied): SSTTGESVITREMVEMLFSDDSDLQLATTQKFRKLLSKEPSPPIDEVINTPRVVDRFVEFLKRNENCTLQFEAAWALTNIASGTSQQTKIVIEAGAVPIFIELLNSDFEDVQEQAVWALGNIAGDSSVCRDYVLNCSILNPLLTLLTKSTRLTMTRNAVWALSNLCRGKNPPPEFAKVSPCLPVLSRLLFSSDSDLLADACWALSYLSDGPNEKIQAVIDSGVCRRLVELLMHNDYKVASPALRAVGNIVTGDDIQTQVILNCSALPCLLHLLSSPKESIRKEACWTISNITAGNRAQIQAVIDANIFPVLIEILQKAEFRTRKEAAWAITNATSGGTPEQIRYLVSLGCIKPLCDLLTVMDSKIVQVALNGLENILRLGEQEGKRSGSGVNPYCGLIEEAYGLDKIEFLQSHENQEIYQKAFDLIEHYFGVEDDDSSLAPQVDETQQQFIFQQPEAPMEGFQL
With B2, the binding result is “binds”.
Same read-out and setting: next, B3: “binds”; B4: “binds”; B1: “binds”.
Consider B6, for which the binding result was “binds”.
In the case of B7, the binding result is on record as “binds”.
